B1: Ankyrin repeat and SOCS box protein 14, residues 532 to 572; numbered along this chain, A6NK59 (parent)
chain: RSLKHLCRLKIRKCMGRLHLRCPVFMSFLPLPNRLKAYVLY

Variants of: B1
Test: abundance fitness (aPCA) (normalised: wild type 0, dead -1); higher = more abundant; growth selection in yeast, the domain comes from the species named
Conditions: Homo sapiens

Abundance fitness of substitutions, site by site:
L40: Q -0.192; V -0.132; P -0.405; T -0.247; E 0.031; S -0.092; R 0.055; G -0.312
Y41: W 0.072; V 0.398; C 0.146; H 0.12; S 0.356; R 0.373; N -0.052; G 0.368; T 0.169; M 0.257
